This assay has as its target T1, hTβRII (G4S)2-hFc (human).
T1 construct: 70 lacks the C-terminal lysine; Expressed in CHO cells
Description: SPR (Biacore), in vitro.

T1 sequence (chain, as listed by the source limits assumed): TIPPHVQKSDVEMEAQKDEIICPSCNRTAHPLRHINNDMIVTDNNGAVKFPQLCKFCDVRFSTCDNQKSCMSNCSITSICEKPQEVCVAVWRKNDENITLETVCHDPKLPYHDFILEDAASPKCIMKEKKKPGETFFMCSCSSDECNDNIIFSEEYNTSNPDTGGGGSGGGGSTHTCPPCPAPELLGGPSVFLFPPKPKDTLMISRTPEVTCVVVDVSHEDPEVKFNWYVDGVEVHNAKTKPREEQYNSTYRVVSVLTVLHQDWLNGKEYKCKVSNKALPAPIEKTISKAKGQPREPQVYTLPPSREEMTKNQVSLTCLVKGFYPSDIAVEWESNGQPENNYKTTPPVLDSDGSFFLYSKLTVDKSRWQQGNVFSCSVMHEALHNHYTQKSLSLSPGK

B1: Human TGFβ2 (ligand, UniProt P61812 303-414, looked up)
chain: ALDAAYCFRNVQDNCCLRPLYIDFKRDLGWKWIHEPKGYNANFCAGACPYLWSSDTQHSRVLSLYNTINPEASASPCCVSQDLEPLTILYYIGKTPKIEQLSNMIVKSCKCS
For the molecule B1, the binding result is “binds”.

Source of the values: patent US20230398182A1 (ACCELERON PHARMA, published 2023).
